In PMC3181147 (Structure (London, England : 1993), 2010):

Molecular target: the molecule itself
Assay: AUC

B1: phosphorylated intracellular domain of PknB_(1-330) (kinase domain and juxtamembrane linker) (domain or fragment)
chain: MTTPSHLSDRYELGEILGFGGMSEVHLARDLRLHRDVAVKVLRADLARDPSFYLRFRREAQNAAALNHPAIVAVYDTGEAETPAGPLPYIVMEYVDGVTLRDIVHTEGPMTPKRAIEVIADACQALNFSHQNGIIHRDVKPANIMISATNAVKVMDFGIARAIADSGNSVTQTAAVIGTAQYLSPEQARGDSVDARSDVYSLGCVLYEVLTGEPPFTGDSPVSVAYQHVREDPIPPSARHEGLSADLDAVVLKALAKNPENRYQTAAEMRADLVRVHNGEPPEAPKVLTDAERTSLLSSAAGNLSGPRTDPLPRQDLDDTDRDRSIGSVG
- Kd: ~2.9 mM
